Data: publication PMC9130146, “Alteration in DNA-binding affinity of Wilms tumor 1 protein due to WT1 genetic variants associated with steroid - resistant nephrotic syndrome in children”

Experiments:
Assay in all cases: MST; 50 mM Na2HPO4.12H2O, 150 mM NaCl, 0.005% Tween; pH not stated; room temperature; 80 nM DNA; protein from 1-4 mM (highest) downward
WT1 ZF2-4 p.Gln447Pro = WT1 ZF2-4 p.Gln447Pro (Homo sapiens (cDNA from A549 cells), UniProt P19544-2 334-423, Q357P); details: protein: recombinant; tags: no tag stated; label: 5' Cyanine5; single strand
WT1 ZF2-4 p.His450Arg = WT1 ZF2-4 p.His450Arg (Homo sapiens (cDNA from A549 cells), UniProt P19544-2 334-423, H360R); details: protein: recombinant; tags: no tag stated; label: 5' Cyanine5; single strand
WT1 ZF2-4 p.Cys433Tyr = WT1 ZF2-4 p.Cys433Tyr (Homo sapiens (cDNA from A549 cells), UniProt P19544-2 334-423, C343Y); details: protein: recombinant; tags: no tag stated; label: 5' Cyanine5; single strand
[1] = molecular target: WT1 ZF2-4 wild type (-KTS) (Homo sapiens (cDNA from A549 cells), UniProt P19544-2 334-423); details: protein: recombinant; tags: no tag stated; pET22b, reverse primer has a stop codon; label: 5' Cyanine5; single strand
WT1 ZF2-4 p.Arg463Ter = WT1 ZF2-4 p.Arg463Ter (Homo sapiens (cDNA from A549 cells), UniProt P19544-2 334-372); details: protein: recombinant; tags: no tag stated; label: 5' Cyanine5; single strand
WT1 ZF2-4 p.His474Arg = WT1 ZF2-4 p.His474Arg (Homo sapiens (cDNA from A549 cells), UniProt P19544-2 334-423, H384R); details: protein: recombinant; tags: no tag stated; label: 5' Cyanine5; single strand
WT1 ZF2-4 p.Asp469Asn = WT1 ZF2-4 p.Asp469Asn (Homo sapiens (cDNA from A549 cells), UniProt P19544-2 334-423, D379N); details: protein: recombinant; tags: no tag stated; label: 5' Cyanine5; single strand
WT1 ZF2-4 p.Arg467Trp = WT1 ZF2-4 p.Arg467Trp (Homo sapiens (cDNA from A549 cells), UniProt P19544-2 334-423, R377W); details: protein: recombinant; tags: no tag stated; label: 5' Cyanine5; single strand
WT1 ZF2-4 p.Arg439Pro = WT1 ZF2-4 p.Arg439Pro (Homo sapiens (cDNA from A549 cells), UniProt P19544-2 334-423, R349P); details: protein: recombinant; tags: no tag stated; label: 5' Cyanine5; single strand
Chain of WT1 ZF2-4 p.Arg439Pro (P19544 other isoform, or with tags, fused parts or gaps R349P | p.R439P p.R439P): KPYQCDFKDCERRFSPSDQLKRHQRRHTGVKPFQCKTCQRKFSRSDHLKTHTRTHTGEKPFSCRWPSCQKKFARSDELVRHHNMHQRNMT

Chain of WT1 ZF2-4 p.Asp469Asn (P19544 other isoform, or with tags, fused parts or gaps D379N | p.D469N p.D469N): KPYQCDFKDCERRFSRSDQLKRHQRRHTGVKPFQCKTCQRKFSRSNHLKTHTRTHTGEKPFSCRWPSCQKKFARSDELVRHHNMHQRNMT
Chain of WT1 ZF2-4 p.Arg463Ter (P19544 351-389): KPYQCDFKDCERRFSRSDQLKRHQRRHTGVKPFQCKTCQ
Chain of WT1 ZF2-4 p.Cys433Tyr (P19544 other isoform, or with tags, fused parts or gaps C343Y | p.C433Y p.C433Y): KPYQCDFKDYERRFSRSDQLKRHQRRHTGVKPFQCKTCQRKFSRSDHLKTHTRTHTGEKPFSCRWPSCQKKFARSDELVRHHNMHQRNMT
Chain of WT1 ZF2-4 p.Arg467Trp (P19544 other isoform, or with tags, fused parts or gaps R377W | p.R467W p.R467W): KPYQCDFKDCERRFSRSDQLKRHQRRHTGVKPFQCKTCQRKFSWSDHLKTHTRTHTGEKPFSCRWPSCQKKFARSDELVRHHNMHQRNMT
Chain of WT1 ZF2-4 p.Gln447Pro (P19544 other isoform, or with tags, fused parts or gaps Q357P | p.Q447P p.Q447P): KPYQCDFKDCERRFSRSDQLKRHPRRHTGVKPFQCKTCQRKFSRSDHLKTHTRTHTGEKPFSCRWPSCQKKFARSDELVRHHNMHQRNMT
Chain of WT1 ZF2-4 p.His450Arg (P19544 other isoform, or with tags, fused parts or gaps H360R | p.H450R p.H450R): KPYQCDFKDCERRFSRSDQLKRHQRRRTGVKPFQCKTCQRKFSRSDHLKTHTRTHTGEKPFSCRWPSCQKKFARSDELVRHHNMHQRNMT
Chain of WT1 ZF2-4 wild type (-KTS) (P19544 other isoform, or with tags, fused parts or gaps): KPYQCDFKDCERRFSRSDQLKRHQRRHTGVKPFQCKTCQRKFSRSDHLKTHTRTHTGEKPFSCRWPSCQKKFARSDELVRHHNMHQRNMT
Chain of WT1 ZF2-4 p.His474Arg (P19544 other isoform, or with tags, fused parts or gaps H384R | p.H474R p.H474R): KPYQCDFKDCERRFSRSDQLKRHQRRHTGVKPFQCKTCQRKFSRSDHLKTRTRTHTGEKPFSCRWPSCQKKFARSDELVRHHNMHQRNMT

## GTGGAGGCGGCGGGGGCGGCAGCAACAG (ssDNA) [EGR1 DNA motif, Cy5 oligo]
WT1 ZF2-4 p.Gln447Pro
  Kd: 24.9 ± 4.2 µM
WT1 ZF2-4 p.His450Arg
  Kd: 878 ± 164 µM
WT1 ZF2-4 p.Cys433Tyr
  Kd: 89.4 ± 7 µM
[1]
  Kd: 111 ± 7.4 µM
WT1 ZF2-4 p.Arg463Ter
  Kd: 324 ± 13.3 µM
WT1 ZF2-4 p.His474Arg
  Kd: 48.4 ± 6 µM
WT1 ZF2-4 p.Asp469Asn
  Kd: 12.1 ± 1.7 µM
WT1 ZF2-4 p.Arg467Trp
  Kd: 94.6 ± 9.8 µM
WT1 ZF2-4 p.Arg439Pro
  Kd: 319 ± 72.7 µM
